Experimental data: patent publication US20200407452A1 (published 2020)

B1: 71D6 chimeric llama-human IgG1 mAb (antibody, V domains shown)
VH: ELQLVESGGGLVQPGGSLRLSCAASGFTFSSYGMSWVRQAPGKGLEWVSAINSYGGSTSYADSVKGRFTISRDNAKNTLYLQMNSLKPEDTAVYYCAKEVRADLSRYNDYESYDYWGQGTQVTVSS
VL: QPVLNQPSALSVTLGQTAKITCQGGSLGARYAHWYQQKPGQAPVLVIYDDDSRPSGIPERFSGSSSGGTATLTISGAQAEDEGDYYCQSADSSGSVFGGGTHLTVL
notes: human IgG1 CH1-CH2-CH3 and human CL lambda; also called 71D6 Human IgG1/lambda
B2: 71D6 llama-mouse chimeric mAb (mouse IgG1/lambda) (antibody, V domains shown)
VH: B1 VH
VL: QPVLNQPSALSVTLGQTAKITCQGGSLGARYAHWYQQKPGQAPVLVIYDDDSRPSGIPERFSGSSSGGTATLTISGAQAEDEGDYYCQSADSSGSVFGGGTHLTVLG
notes: also called 71D6 Mouse IgG1/lambda
B3: 71G3 chimeric llama-human IgG1 mAb (antibody, V domains shown)
VH: QVQLVESGGGLVQPGGSLRVSCAASGFTFSTYYMSWVRQAPGKGLEWVSDIRTDGGTYYADSVKGRFTMSRDNAKNTLYLQMNSLKPEDTALYYCARTRIFPSGYDYWGQGTQVTVSS
VL: QAVVTQEPSLSVSPGGTVTLTCGLSSGSVTTSNYPGWFQQTPGQAPRTLIYNTNSRHSGVPSRFSGSISGNKAALTIMGAQPEDEADYYCSLYPGSTTVFGGGTHLTVL
notes: human IgG1 CH1-CH2-CH3 and human CL lambda; also called 71G3 Human IgG1/lambda
B4: 71A3 chimeric llama-human IgG1 mAb (antibody, V domains shown)
VH: EVQLVESGGGLVQPGGSLRLSCAASGFSFKDYDITWVRQAPGKGLEWVSTITSRSGSTSYVDSVKGRFTISGDNAKNTLYLQMNSLKPEDTAVYYCAKVYATTWDVGPLGYGMDYWGKGTLVTVSS
VL: SYELTQPSALSVTLGQTAKITCQGGSLGSSYAHWYQQKPGQAPVLVIYDDDSRPSGIPERFSGSSSGGTATLTISGAQAEDEGDYYCQSADSSGNAAVFGGGTHLTVL
notes: human IgG1 CH1-CH2-CH3 and human CL lambda
B5: 76H10 chimeric llama-human IgG1 mAb (antibody, V domains shown)
VH: QLQLVESGGGLVQPGGSLRVSCTASGFTFNTYYMTWVRQAPGKGLEWVSDINSGGGTYYADSVKGRFTISRDNAKNTLYLQMNSLKPEDTALYYCVRVRIWPVGYDYWGQGTQVTVSS
VL: QAVVTQEPSLSVSPGGTVTLTCGLSSGSVTTSNYPGWFQQTPGQAPRTLIYNTNNRHSGVPSRFSGSISGNKAALTITGAQPEDEADYYCSLYTGSYTTVFGGGTHLTVL
notes: as for B4
B6: 71G2 chimeric llama-human IgG1 mAb (antibody, V domains shown)
VH: EVQLQESGGGLVQPGGSLRLSCAASGFTFSIYDMSWVRQAPGKGLEWVSTINSDGSSTSYVDSVKGRFTISRDNAKNTLYLQMNSLKPEDTAVYYCAKVYGSTWDVGPMGYGMDYWGKGTLVTVSS
VL: SSALTQPSALSVSLGQTARITCQGGSLGSSYAHWYQQKPGQAPVLVIYGDDSRPSGIPERFSGSSSGGTATLTISGAQAEDEDDYYCQSTDSSGNTVFGGGTRLTVL
notes: human IgG1 CH1-CH2-CH3 and human CL lambda; also called 71G2 Human IgG1/lambda

What was measured:
[1] = biological target: T1, human MET ECD (human, UniProt P08581 25-932); test: ELISA, MET ECD coated, mAb 0-40 nM, mouse IgG format
T1 construct: range 1-932; recombinant; range as printed includes the signal peptide; also called hMET; hMET ECD

[2] = biological target: T2, mouse MET ECD (mouse, UniProt P16056 25-931); test: as above
T2 construct: range 1-931; recombinant; range as printed includes the signal peptide; also called mMET; mMET ECD

[3] = biological target: T3, native human MET on living cells (human, UniProt P08581 25-1390); test: FACS, A549 cells
T3 construct: whole, on cells; also called Human cells (A549); A549

[4] = biological target: T4, native mouse MET on living cells (mouse, UniProt P16056 25-1379); test: FACS, MLP29 cells
T4 construct: whole, on cells; also called Mouse cells (MLP29); MLP29

[5] = biological target: T3, native human MET on living cells; test: cell-based or functional assay
[6] = biological target: T4, native mouse MET on living cells; test: cell-based or functional assay
[7] = biological target: T3, native human MET on living cells; test: cell-based or functional assay; remark: listed apart in the source
[8] = biological target: T4, native mouse MET on living cells; test: cell-based or functional assay; remark: listed apart in the source
[9] = biological target: T1, human MET ECD; test: ELISA, hMET ECD coated
[10] = biological target: T2, mouse MET ECD; test: ELISA, mMET ECD coated
[11] = biological target: T3, native human MET on living cells; test: cell-based or functional assay; remark: listed apart in the source
[12] = biological target: T4, native mouse MET on living cells; test: cell-based or functional assay; remark: listed apart in the source
[13] = biological target: human MET ECD mutant A (mutations 1, 2, 3) (human) (UniProt P08581); test: ELISA, WT or mutant hMET ECD coated
[14] = biological target: human MET ECD mutant D (mutations 1, 2) (human) (UniProt P08581); test: ELISA, WT or mutant hMET ECD coated
[15] = biological target: human MET ECD mutant E (mutations 2, 3, 4) (human) (UniProt P08581); test: ELISA, WT or mutant hMET ECD coated
[16] = biological target: human MET ECD mutant H (mutations 2, 4) (human) (UniProt P08581); test: ELISA, WT or mutant hMET ECD coated
[17] = biological target: T1, human MET ECD; test: ELISA, MET ECD coated, mAb 0-20 nM
Procedure: (§1) Production (by transient transfection of mammalian cells) and purification (by protein A affinity chromatography) of the resulting chimeric llama-human IgG1 molecules was outsourced to U-protein Express. Binding of chimeric mAbs to MET was determined by ELISA using hMET or mMET ECD in solid phase and increasing concentrations of antibodies (0-20 nM) in solution. […] Binding capacity (EMAX) varied from antibody to antibody, possibly due to partial epitope exposure in the immobilized antigen, but was similar in the human and mouse setting.

[18] = biological target: T2, mouse MET ECD; test: ELISA, MET ECD coated, mAb 0-20 nM
Procedure: as §1

[19] = biological target: T1, human MET ECD; test: ELISA, WT or mutant hMET ECD coated
Procedure: Using human MET as a template, we mutagenized each of these residues in different permutations, generating a series of MET mutants that are fully human except for specific residues, which are llama. Next, we tested the affinity of selected SEMA-binding mAbs (71D6, 71C3, 71D4, 71A3, 71G2) and PSI-binding mAbs (76H10 and 71G3) for these MET mutants by ELISA. To this end, the various MET proteins were immobilized in solid phase (100 ng/well in a 96-well plate) and then exposed to increasing concentrations of antibodies (0-50 nM) solution. […] Wild-type human MET was used as positive control.
TABLE 24 The epitopes of MET responsible for agonistic antibody binding represent residues conserved among H. sapiens, M. musculus, R. norvegicus, M. fascicularis but not among the same species and L. glama. The relevance of residues conserved among human, mouse, rat, cynomolgus monkey but not llama MET for binding to agonistic mAbs was tested by ELISA. Wild-type (WT) or mutant (MT) human MET ECD was immobilized in solid phase and exposed to increasing concentrations of mAbs in solution. […] All binding values were normalized to the WT protein and are expressed as % binding (EMAX) compared to WT MET.

[20] = biological target: human MET ECD mutant I (mutations 6, 7, 8) (human) (UniProt P08581); test: ELISA, WT or mutant hMET ECD coated
[21] = biological target: human MET ECD mutant J (mutations 6, 7) (human) (UniProt P08581); test: ELISA, WT or mutant hMET ECD coated

Molecule | EMAX [3] [% CTR] | EMAX [4] [% CTR] | phospho-MET ELISA EMAX, A549 cells [5] [% HGF activity] | phospho-MET ELISA EMAX, MLP29 cells [6] [% HGF activity] | protection from staurosporine-induced apoptosis EC50, MCF10A cells [7] [nM] | protection from staurosporine-induced apoptosis EMAX, MCF10A cells [7] [%] | protection from staurosporine-induced apoptosis EC50, MLP29 cells [8] [nM] | protection from staurosporine-induced apoptosis EMAX, MLP29 cells [8] [%] | A549 MET act. (EMAX, % HGF) [11] [% HGF] | LOC br. m. (branch n.) [11] [branches per spheroid] | MLP29 MET act. (EMAX, % HGF) [12] [% HGF] | MLP29 br. m. (branch n.) [12] [branches per spheroid] | % binding (EMAX) vs WT MET ECD [13] [%] | % binding (EMAX) vs WT MET ECD [14] [%] | % binding (EMAX) vs WT MET ECD [15] [%] | % binding (EMAX) vs WT MET ECD [16] [%] | EMAX [17] [OD450 AU] | EMAX [18] [OD450 AU] | % binding (EMAX) vs WT MET ECD [19] [%] | further results
5D5 mouse anti-human MET antibody | – | – | – | – | – | – | – | – | – | – | – | – | – | – | – | – | – | – | – | EC50 [1]: 0.197 nM; EMAX [1]: 3.16 OD450; EC50 [2]: > 40 nM
B1 | 115 | 120 | 102 | 115 | 1.48 | 66.8 | 0.95 | 68.3 | 104 | 32.7 | 110 | 41.3 | 103 | 128 | 43.6 | 38.6 | 2.08 | 2.01 | 100 | EC50 [9]: 0.032 nM; EC50 [10]: 0.036 nM
B2 | – | – | – | – | – | – | – | – | – | 30.4 | – | 39.5 | – | – | – | – | – | – | – | EC50 [10]: 0.036 nM
B3 | 110 | 112 | 95.7 | 97.8 | 5.04 | 65.2 | 4.85 | 62.3 | 94.3 | 22.3 | 96.8 | 29.3 | – | – | – | – | 2.83 | 2.98 | – | % binding (EMAX) vs WT MET ECD [20]: 100%; % binding (EMAX) vs WT MET ECD [21]: 91.2%
B4 | – | – | 86.6 | 96 | < 0.5 | 71.7 | < 0.5 | 70.5 | – | – | – | – | 117 | 128 | 65.4 | 76.7 | 2.4 | 2.73 | 100 | –
B5 | – | – | 61.2 | 64.1 | > 32 | 22.8 | > 32 | 27.2 | – | – | – | – | – | – | – | – | 2.67 | 2.66 | – | % binding (EMAX) vs WT MET ECD [20]: 100%; % binding (EMAX) vs WT MET ECD [21]: 89%
B6 | 137 | 131 | 101 | 110 | 1.06 | 64.8 | 1.99 | 58.3 | 106 | 31.7 | 110 | 45 | 92.1 | 114 | 41.4 | 40.2 | 3.09 | 3.17 | 100 | –
